The source of these data is article PMC3074145 (Nucleic Acids Research, 2010).

Read-outs that look alike come from different tables or passages of the source.

The target in one data set is T1, GST–Dpb11 (S. cerevisiae, UniProt P47027 1-764).
T1 sequence (looked up): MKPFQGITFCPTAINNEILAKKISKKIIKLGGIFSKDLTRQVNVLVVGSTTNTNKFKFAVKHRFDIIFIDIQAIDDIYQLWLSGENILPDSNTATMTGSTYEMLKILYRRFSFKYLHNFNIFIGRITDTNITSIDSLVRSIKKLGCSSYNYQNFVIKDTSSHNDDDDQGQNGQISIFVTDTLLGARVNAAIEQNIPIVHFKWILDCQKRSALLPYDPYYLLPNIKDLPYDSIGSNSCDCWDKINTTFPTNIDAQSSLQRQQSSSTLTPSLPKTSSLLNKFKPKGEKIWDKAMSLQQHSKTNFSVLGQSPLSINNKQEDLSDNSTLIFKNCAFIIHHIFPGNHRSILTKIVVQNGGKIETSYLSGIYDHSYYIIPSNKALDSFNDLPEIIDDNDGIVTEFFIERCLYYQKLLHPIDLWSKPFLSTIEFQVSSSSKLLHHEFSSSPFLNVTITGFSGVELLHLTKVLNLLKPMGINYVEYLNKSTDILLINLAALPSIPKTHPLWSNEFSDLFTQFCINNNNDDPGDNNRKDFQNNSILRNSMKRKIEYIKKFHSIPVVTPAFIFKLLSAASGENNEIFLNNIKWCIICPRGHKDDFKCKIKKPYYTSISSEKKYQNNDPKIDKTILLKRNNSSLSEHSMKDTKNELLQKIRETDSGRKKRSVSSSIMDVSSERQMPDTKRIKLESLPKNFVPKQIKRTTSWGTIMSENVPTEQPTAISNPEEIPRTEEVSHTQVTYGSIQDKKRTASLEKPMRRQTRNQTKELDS
As to the kind of experiment: pull-down.

Data set [1] addresses T2, GST-Sld2T84D (Saccharomyces cerevisiae, UniProt P34252 1-453, T84D).
T2 sequence: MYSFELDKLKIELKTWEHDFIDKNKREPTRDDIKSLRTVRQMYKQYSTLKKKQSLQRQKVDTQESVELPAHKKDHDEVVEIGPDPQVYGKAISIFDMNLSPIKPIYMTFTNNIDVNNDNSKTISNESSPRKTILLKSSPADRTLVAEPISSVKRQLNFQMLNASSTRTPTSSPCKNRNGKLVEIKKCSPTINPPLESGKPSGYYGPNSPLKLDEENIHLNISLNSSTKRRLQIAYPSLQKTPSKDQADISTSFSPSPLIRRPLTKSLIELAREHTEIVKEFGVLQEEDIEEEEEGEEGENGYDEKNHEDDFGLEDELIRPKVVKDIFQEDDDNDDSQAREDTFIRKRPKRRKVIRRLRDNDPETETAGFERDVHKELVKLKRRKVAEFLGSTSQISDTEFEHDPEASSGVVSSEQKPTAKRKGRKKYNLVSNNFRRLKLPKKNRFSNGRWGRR
As to the kind of experiment: GST pull-down.

The target of data set [2] is T2, GST-Sld2T84D. The data set is described as follows: GST pull-down. This is another data set of the same source.
In a further data set the target is T3, Sld2 (Saccharomyces cerevisiae, UniProt P34252 1-453).
T3 sequence: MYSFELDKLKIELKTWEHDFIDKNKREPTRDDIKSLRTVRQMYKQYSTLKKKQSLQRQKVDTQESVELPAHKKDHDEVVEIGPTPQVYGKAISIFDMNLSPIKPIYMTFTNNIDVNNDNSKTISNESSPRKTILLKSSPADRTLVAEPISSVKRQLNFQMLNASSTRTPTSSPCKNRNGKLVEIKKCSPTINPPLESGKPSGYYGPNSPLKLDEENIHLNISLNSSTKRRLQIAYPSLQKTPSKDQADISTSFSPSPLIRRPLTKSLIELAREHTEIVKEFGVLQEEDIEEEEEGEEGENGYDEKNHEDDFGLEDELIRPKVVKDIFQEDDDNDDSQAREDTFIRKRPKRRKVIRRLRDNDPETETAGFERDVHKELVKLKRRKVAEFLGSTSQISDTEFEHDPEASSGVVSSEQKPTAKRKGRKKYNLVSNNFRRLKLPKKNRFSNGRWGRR
As to the kind of experiment: fluorescence anisotropy.

For another data set, the target named is T4, Sld2T84D (Saccharomyces cerevisiae, UniProt P34252 1-453, T84D).
T4 sequence: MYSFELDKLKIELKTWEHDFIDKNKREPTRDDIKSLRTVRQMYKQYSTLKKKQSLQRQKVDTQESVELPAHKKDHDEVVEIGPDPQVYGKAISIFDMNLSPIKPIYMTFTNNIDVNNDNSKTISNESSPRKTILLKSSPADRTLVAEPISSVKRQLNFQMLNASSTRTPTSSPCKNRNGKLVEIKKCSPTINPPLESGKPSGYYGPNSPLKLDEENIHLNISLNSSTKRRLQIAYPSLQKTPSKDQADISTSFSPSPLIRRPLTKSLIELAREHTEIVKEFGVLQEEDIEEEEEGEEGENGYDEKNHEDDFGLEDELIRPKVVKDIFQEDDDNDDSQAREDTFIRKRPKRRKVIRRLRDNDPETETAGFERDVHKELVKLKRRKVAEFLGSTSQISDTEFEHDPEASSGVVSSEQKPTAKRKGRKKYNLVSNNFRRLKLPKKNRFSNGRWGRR
The data set is described as follows: fluorescence anisotropy. On the technique in general: Fluorescence polarisation rises when a labelled molecule tumbles more slowly, as on binding a larger partner.

The target in the next data set is T5, Dpb11;Sld2T84D (Saccharomyces cerevisiae;Saccharomyces …, UniProt P47027;P34252 1-764;1-453, |T84D).
T5 sequence 1: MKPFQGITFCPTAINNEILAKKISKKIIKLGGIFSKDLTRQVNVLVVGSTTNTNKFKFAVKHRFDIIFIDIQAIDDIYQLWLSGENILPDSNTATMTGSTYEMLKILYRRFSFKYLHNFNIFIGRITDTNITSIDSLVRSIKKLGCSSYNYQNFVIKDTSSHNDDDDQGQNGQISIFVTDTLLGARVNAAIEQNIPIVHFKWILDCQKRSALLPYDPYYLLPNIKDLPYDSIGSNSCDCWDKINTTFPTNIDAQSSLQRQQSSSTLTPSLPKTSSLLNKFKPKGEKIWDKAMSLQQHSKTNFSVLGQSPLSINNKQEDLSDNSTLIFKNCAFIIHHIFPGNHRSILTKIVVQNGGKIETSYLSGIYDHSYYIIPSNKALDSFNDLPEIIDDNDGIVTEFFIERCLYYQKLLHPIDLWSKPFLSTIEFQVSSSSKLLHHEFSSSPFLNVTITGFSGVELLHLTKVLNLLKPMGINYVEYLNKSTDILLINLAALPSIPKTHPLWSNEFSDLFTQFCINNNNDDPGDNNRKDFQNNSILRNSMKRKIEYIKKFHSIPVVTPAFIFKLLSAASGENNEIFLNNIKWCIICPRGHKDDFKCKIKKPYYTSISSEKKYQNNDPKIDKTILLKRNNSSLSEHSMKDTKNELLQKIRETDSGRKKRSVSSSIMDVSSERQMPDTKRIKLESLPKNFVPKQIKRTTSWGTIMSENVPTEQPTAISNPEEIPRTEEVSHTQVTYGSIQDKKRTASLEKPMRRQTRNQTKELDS
T5 sequence 2: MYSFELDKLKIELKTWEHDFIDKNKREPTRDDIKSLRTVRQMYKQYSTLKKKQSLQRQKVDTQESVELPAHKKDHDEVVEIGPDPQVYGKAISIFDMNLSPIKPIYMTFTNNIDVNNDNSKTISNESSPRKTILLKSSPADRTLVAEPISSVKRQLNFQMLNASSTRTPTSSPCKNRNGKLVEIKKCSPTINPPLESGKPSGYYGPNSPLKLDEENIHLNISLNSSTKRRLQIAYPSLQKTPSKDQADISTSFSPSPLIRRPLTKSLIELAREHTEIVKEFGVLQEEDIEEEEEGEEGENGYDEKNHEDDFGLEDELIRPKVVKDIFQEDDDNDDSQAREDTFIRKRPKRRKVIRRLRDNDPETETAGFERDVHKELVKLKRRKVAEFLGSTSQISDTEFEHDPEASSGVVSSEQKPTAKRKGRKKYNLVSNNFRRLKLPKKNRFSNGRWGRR
As to the kind of experiment: biotin-DNA pull-down.

B1: Sld2T84D (radiolabeled, with a PKA sequence at the N-terminus) (natural protein, S. cerevisiae, UniProt P34252 1-453, looked up)
chain: MYSFELDKLKIELKTWEHDFIDKNKREPTRDDIKSLRTVRQMYKQYSTLKKKQSLQRQKVDTQESVELPAHKKDHDEVVEIGPDPQVYGKAISIFDMNLSPIKPIYMTFTNNIDVNNDNSKTISNESSPRKTILLKSSPADRTLVAEPISSVKRQLNFQMLNASSTRTPTSSPCKNRNGKLVEIKKCSPTINPPLESGKPSGYYGPNSPLKLDEENIHLNISLNSSTKRRLQIAYPSLQKTPSKDQADISTSFSPSPLIRRPLTKSLIELAREHTEIVKEFGVLQEEDIEEEEEGEEGENGYDEKNHEDDFGLEDELIRPKVVKDIFQEDDDNDDSQAREDTFIRKRPKRRKVIRRLRDNDPETETAGFERDVHKELVKLKRRKVAEFLGSTSQISDTEFEHDPEASSGVVSSEQKPTAKRKGRKKYNLVSNNFRRLKLPKKNRFSNGRWGRR
modifications: 32P-phosphate on the N-terminal PKA sequence (radiolabeled with PKA and γ-32P-ATP)
On to B1, for which, in the data set with GST–Dpb11, the “percent of input pulled down (with ssARS1-1 at a ratio of 1.2 ssARS1-1/Sld2T84D)” value came out at 35.2%.

B2: ARS1-A-C (ssDNA)
DNA: TTCCCTCTTGTTCTTTTCCCGCTTTTCTGTTTCGCTCTTTTCTGCTTGCTTTTCCCCCGGCCTGCCGGCCCGTGCCCCCC
Regarding B2, the binding result with GST-Sld2T84D [1] was “binds”.

B3: ARS1-G-C (ssDNA)
DNA: TTACATCTTGTTATTTTACACATTTTATCTTTACATCTTTTATCCTTCCTTTTCAAAACCCCTCCACCCAACTCCACAAA
For B3, in the data set with GST-Sld2T84D [1], the binding result is “binds”.

B4: ARS1-T-A (ssDNA)
DNA: AAACAACAAGAAAAAAAACAGAAAAAAAGAAAAGAACAAAAAAGCAAGCAAAACAAAAGGCCAGCAGGCAAGAGCACAAA
Take B4: in the data set with GST-Sld2T84D [2], the binding result is “no binding”.

B5: FAM-ssARS1-1 (ssDNA)
DNA: TTACATCTTGTTATTTTACAGATTTTATGTTTAGATCTTTTATGCTTGCTTTTCAAAAGGCCTGCAGGCAAGTGCACAAA
By Kd is commonly meant the constant that tells how readily two partners part at equilibrium. Read a high Kd as lower affinity. B5: the Kd with Sld2 is 694 ± 50 nM; in the data set with Sld2T84D, 179 ± 43 nM.

B6: Biotin-ssARS1-1 (ssDNA)
DNA: TTACATCTTGTTATTTTACAGATTTTATGTTTAGATCTTTTATGCTTGCTTTTCAAAAGGCCTGCAGGCAAGTGCACAAA
For the molecule B6, the binding result in the data set with Dpb11;Sld2T84D is “binds”.
